The results in this text go back to a protein production outcome set (Wang et al. 2014).

The data set can be described thus: label from the status in PepcDB records.
With “MNTPLRRVAIAVMVMVVALLANATYVQVIKADNLRADPRNSRVLLDEYSRQRGQISAAGQVLAASVPTDDRYKYLRTYPPNPAAPSSPLANAPVTGFYSMQYGSTGLERSEDPVLNGSDNRLFGRRFFDLVSGRDPRGGNVVTTINPVMQQVAYDQLTAKGYTGSVVAIEPSTGRILTMVSTPSYDPNSLASHDGTETTQAWEALNADPEKPLINRAVSQTYPPGSTFKVVVTAAALAAGTTPDTQLTAAPQITLPGTSTTLENYNGSTCGGAPTASLREAFARSCNTAFVELGVKTGTDAVSDQSSALGIGGQMPGVPFPVADSTIGSIPDDAALGQSSIGQRDVALTPLQNAMIAATVANGGVRMQPQLVSELQGPDLSNLATTNPVSEGQAMSSQVAATLTDLMIGSENNTSGEGKIPGVQIASKTGTAEHGTDPRNTPPHAWYIGFAPAQNPTVAIAVIVEDGGDRALAATGGSVAAPIGRAVIAAGLQGG”, the protein production entry was “failed”.
In the case of “MKNKFIFITVVSILLIAAGIFTTIAMANANSVVVKAEVLNVRSGPGLAYDVTSQARKNEVLRVVGEENQWYKVQLDNGNSGWVASWLVENTDVSAASNSIAIVSSDGGLNVREKPSTSSTSLGLLNNGDQVTVTSQQNGWAQIQYNGKSAWVSSQYLTIRESVTKVDESELQTVTIRDDSTNIRNKPGRDGAVIEKANSGQGFAIQGVQGDWYKIRTTSGEEGYVANWVVDVSDKGQTSSPRSKTTKLSEATIVIDPGHGGNDPGAKGANGTIEKEMTLKTAKKLKEKLESRGAKVILTRNSDKYVSLKSRTNVAAENKADVFISIHFDSLEDSSKGVSGQTTYYYDNSDKSLAESINTTLGNDLPTTNRGSRVGDYYVVRENSQPAVLLELGYLSSAKDERNINSASYRSQIADSVTDGLSNYFSN” it was “failed”.
The result for “MATVIAKPEAIAPEPKRRFTWPRGSRLGRLIVVLNVVALAIVIVGALILNELRNGLVNARIDSLSTQGELIANVIDQSATVGEPEPALDPYTASQIFQLLFIPRSQRARLFDAQGKALADSFVVADRVDWKVLPPARKPDQKDDDARTTPDRAAKAKRAQEALANEIAQAMRGRTVAGTRIAENGERVVSVSIPIQHVKAVLGVLTLEASDVDEIIAAQRKALLPFIAVAMLAILTSSVLLHRLIAVPVLRLARAADHVRLQGARAISLPDLSERKDELGDLSRSLEDMTHSLSERMDAIERFAADVAHEIKNPLTSIRSAIETLDLVTEPAARARLLAILQNDVNRLDRLVTDISNASRLDAELSREHPKALDLGRLLTEVVSLYENQWRPGDAPGSVRVSLSLADPSQPAIILGRETPIGQVFRNLIDNARSFSPADGEVRVTLSRTRGGLIAAVEDDGPGMPPENLETIFERFYTSRPKGRAFGGNSGLGLSIARQIVETHGGTVHAENRKDANGAVVGARFVVELPDARE” reads “failed”; that for “MDPTVSLQLSVDRSSPVPLYFQLSQQLEAAIEHGTLTPGSLLGNEIELAARLGLSRPTVRQAIQSLVDKGLLVRRRGVGTQVVHSQVKRPLELSSLYDDLEAAGQRPATQVLLNTLVPASAEVAAALGVAEGSDVHQVERLRLAHGEPMAYLCNYLPTGLLGLDSEQLEATGLYRLMRAAGITLHSARQSVGARAATAVEGERLGEPEGAPLLTMQRTTFDDTGRAVEFGTHTYRASRYSFEFQLLVRP”, “failed”; that for “MRLSRIKLPKINSLYGRIFAIFWFTMLLVLIAVLSLPHLDPRKARDIPDEHYQRIIETRDAIQNKYSKETDLGRILFRVEGNRAGKHDPRPRVFFSDYNGNVLTTDKRSNFQLRAMQNFVTSIEDYNKPKQRLYGRYMIAGPVPIVLADSELLMYVGFKWNEPPPLLLRLFDHPFQLLLAVMLVSTPLLLWLAWALSQPARRLEAAAQRVAKGEFVIDPNLEKGTAEFRQAGSSFNQMVEAVNQMISGQQRLLSDISHELRSPLTRLRMASALATRKQGDSPELVRIDTEAQRLEQMISELLELSRMQVNSHMTRETQPIESLWEEIIKDAQFEAEQMGKTLRYSEIPERHISGNPKLLMSAVENIIRNAIYYGKDEVQIDIQDKTDTLTITVDDNGDGVPDEELEAIFRPFYRVSTARDRHSGGTGLGLTITESAIRQHSGTIVASRSPLGGLRVSITLPLVKVGK”, “failed”.
The result for “EYQVLNLFICGIGTVGGSLVEQIRCQQQKLMMENGLKLHVVGIIDAAKAMFSREGFDLANFREELQKKGKDSNLQTIRDEIVGMNIFNSVFVDCTASPDIASLYKDLLQHNVSVVAANKIAASSAYENYRELKTIARQRGVKYLFETNVGAGLPIINTINDLIHSGDKILKIEAVLSGTLNYIFNK” reads “failed”.
